Reference: patent US20180030109A1

Assays:
[1] = target: MUC16 (CA125), native, membrane-bound on cancer cells (human) (UniProt Q8WXI7); assay: flow cytometry on OVCAR3 cells, anti-FLAG detection
[2] = target: MUC16-targeted mesothelin-TR3 fusion protein (Meso-TR3) (human); assay: cell-based or functional assay
[3] = target: MUC16 (CA125), native, membrane-bound on cancer cells (human) (UniProt Q8WXI7); assay: cell-based or functional assay

Chain of MUC16-targeted mesothelin-TR3 fusion protein (Meso-TR3) (chain): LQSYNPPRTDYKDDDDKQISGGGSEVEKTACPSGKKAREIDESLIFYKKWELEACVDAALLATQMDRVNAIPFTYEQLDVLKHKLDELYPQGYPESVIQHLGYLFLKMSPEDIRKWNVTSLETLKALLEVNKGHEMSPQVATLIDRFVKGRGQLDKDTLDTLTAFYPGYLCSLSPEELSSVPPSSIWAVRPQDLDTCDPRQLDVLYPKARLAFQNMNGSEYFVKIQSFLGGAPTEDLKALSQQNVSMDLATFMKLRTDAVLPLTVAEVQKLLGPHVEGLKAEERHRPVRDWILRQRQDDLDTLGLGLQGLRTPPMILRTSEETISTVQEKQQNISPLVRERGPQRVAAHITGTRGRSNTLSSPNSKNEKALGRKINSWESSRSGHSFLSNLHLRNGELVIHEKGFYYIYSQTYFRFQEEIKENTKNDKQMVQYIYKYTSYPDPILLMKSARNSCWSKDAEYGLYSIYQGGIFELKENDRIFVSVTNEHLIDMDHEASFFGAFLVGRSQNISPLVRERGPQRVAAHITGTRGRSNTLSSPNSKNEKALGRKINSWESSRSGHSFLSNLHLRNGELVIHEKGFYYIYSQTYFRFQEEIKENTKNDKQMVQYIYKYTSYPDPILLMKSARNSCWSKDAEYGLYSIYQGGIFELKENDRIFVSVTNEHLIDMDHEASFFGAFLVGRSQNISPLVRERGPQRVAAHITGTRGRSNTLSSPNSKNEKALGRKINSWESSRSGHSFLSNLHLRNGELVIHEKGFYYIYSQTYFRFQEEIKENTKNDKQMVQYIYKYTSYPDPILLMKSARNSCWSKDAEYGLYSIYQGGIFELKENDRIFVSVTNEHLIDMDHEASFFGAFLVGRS
Chain of MUC16-targeted mesothelin-TR3 fusion protein (Meso-TR3) (human) (chain, as listed by the source limits assumed, form in doubt): as the sequence (chain) above

soluble, FLAG-tagged human mesothelin (secreted form, GPI signal sequence deleted) (from UniProt Q13421 37-598) (ligand)
percent of cells positive for the FLAG epitope tag [1]: 100%

soluble death receptor 5 (DR5-Fc) (from UniProt O14763 56-182) (Fc fusion)
cell death of OVCAR3 cells by Meso-TR3 at the highest DR5-Fc concentration [2]: < 10%
cell death of OVCAR3 cells by Meso-TR3 in the absence of DR5-Fc [2]: 90%

MUC16-targeted mesothelin-TR3 fusion protein (Meso-TR3)
cell death of MUC16-positive OVCAR3 cells at the highest drug dose [3]: 65%
cell killing of OVCAR3 cells by Meso-TR3, highest dose of soluble mesothelin competitor [3]: 40%
cell killing of OVCAR3 cells by Meso-TR3, no competitor [3]: 80%
fraction of MUC16-positive HeLa cells after Meso-TR3 treatment (flow cytometry) [3]: 54%
fraction of MUC16-positive HeLa cells before Meso-TR3 treatment (flow cytometry) [3]: 80%
